From the DeepSol protein solubility set come the findings set out here.

The series in a line: soluble on expression in E. coli; label from the status in PepcDB or PDB records.
For the sequence “MGSDKIHHHHHHMKKAHVIVVGNEKGGTGKSTISMHLIVSLLDKGLSVGSIDIDARQATLSRYIGNRAARQDRAELNLPIPEHIPIPPSGDAQADCARLDEVFKDFAARHDVVVIDTPGSDHPMSRLGHSFADTLVTPLNDSLVDLDVLALVEPGTMKIRRPSHYAEMVWETKKTRAMRGEKAVVDWIVLRNRLSNLDARNKRDMEKLLAELSKRVGFRVIPGLGERVIYRSMFLEGLTLVDLKKKPLGFDFNMSHVAARQELRTLVDAIGLGLPATA”, the “soluble on expression in E. coli” value was “not soluble”. Regarding “MPVVSNTELSMRRQEILEGARRCFAEHGYEGATVRRLEETVGKSRGAIFHHFSDKENLFLALAREDAARMAEVVAENGLVEVMRDMLAHPERHDWLATRLEITKMLRTDPSFRNRWIEHQRVLDDAVLERLQRNAHLGRMRDDVPIDVLHTYLETVLDGFISRLASGGDTDNLERVLDLVEESVRSSQPS”, the “soluble on expression in E. coli” value is on record as “not soluble”.

Consider “MVAYSPIIATYGNRAEQFLETDSDFAKYHAKLNKKLQHLRSRCHLVTKDTKKYSSKNKYGEINSEDYDNKTKLIGVLILLHAERDLALAETLKLRARQRGKLKKSEEKVLSTRLKKACKTADKLVNVTQNEQQWITRAQYLAFAKLVHSEYLINGKRFKRKDNAKISNNLALVFAALEHLKNLSLLAEEVVDNIVNKYQYSLKQYAGNLITTPEINNFIVERVQSDENKDDELVKLLLDNGFNMKKITTSTEDQKVTTNINWRSFNAKIIDAEVAQFLEQGLSIHPTQITQYTQRLSKLEKALDRHEFFIANHDDQDDIDEMVENSSENNQIILAYIKYNILLTSISRERDLFTHLWNQWLKLNTSLPSKLTKYKEMERIVKNLTKYLSDIMELPGVYSDDELLSQLDLCKLYFQLFLNTGCLSVLYQSKGRYMEALALYVDAYRRLENKLSEIESLDEILLPANLLSLNSVRSLQKRIENGGNSVITLAEYEKRNHGGSLGKYDLTVIEKLDSKKILPTDIQLKNLFPLKPKMLPIPSKPTLFDLAFNYITYDKQEPSASQVKDSVTETESISQTPISNEQTEGEPKKKRGFLGLFGR”, for which the “soluble on expression in E. coli” value is “not soluble”. In the case of “MSYRKKLTSPEDAVGLIRSGMRVFVSGNAATPTPLLKALAARKDELENVELVHLLQMGEDPFASLEMEGHFRRRSLFVGPADREAVNQGRADYVPVMLHQVPWLFKRGILPLDAAIVQVSPPDEHGFCSLGVEVIATKAAVEAAPIVIAMVNPRMPRTLGDTFVHVSRFTAIVEVDWPLPELKREGFGEVERRIGEHVAGLIEDGATLQMGIGAIPDAVLASLEGRRDLGVHTEMISDGVLEAWEKGLITGAKKSLHPGKIVGTFVLGSERLYRFVHDNPLFELHPADYVNDPFVIAQNRKMVAINSAIEVDLTGQVVADSIGTRIYSGFGGQLDFIRGAARSEGGKPIIALPSTAKGQSRIVPFLKPGAGVVTTRADVHYVVTEWGVAELFGRSLRERAKALIAIAHPDFREALLQGAWERGLLPRGYPGVDLKGLEEKRGRP” it was “soluble”. In the case of “MDDSTLRRKYPHHEWHAVNEGDSGAFVYQLTGGPEPQPELYAKIAPRAPENSAFDLSGEADRLEWLHRHGIPVPRVVERGADDTAAWLVTEAVPGVAAAEEWPEHQRFAVVEAMAELARALHELPVEDCPFDRRLDAAVAEARRNVAEGLVDLDDLQEERAGWTGDQLLAELDRTRPEKEDLVVCHGDLCPNNVLLDPGTCRVTGVIDVGRLGVADRHADIALAARELEIDEDPWFGPAYAERFLERYGAHRVDKEKLAFYQLLDEFF” it was “not soluble”. In the case of “MGSDKIHHHHHHMFLILLEVIVTSCPLLSSSFARLNPIPLDDAVIRTFMFIILHCKDKSIANPGAIIYKPFYPKFRVMERNELVNFVEGILKRIGFRTMKLEFRGGCFDLVATRQLLLLFIKALANIDKFSEEQAEDLKKLAKLFKASPLLVGLRSKNAELEDGVVYERFGIYAITPGTLYSMFAEGEPPLIIAERGGFYVRIDGKKLKALREEHGYSITELAGILGISRKSLQRYEKGESVVSLEVALRLEEVFDEPLVKPIDVLRARLKDVTLTSEPDNILEKEVFEKLRKLGMSVVKIKTAPFNAITKEEEDDIELLTGIDERKTGRTLKRAELVSQMAEVVGSDGVFVVKKARMEVVRNVPILPKKLLEEIKDADELLELIRDLKFKS” it was “not soluble”; in that of “MGSDKIHHHHHHMFFYNIHQPMKTLIENLTSDLLPNQIFQTGFSFLIILKGNSLLKLDSNVLIFIMSGTMKVSSAQQELATVRERHIFFWDKEDDYTCEMLSDSQVILFAFGDLIVHDLLTFRPFGAISDSSVSKDVGLKFAEPLNSFLQLLAQYMEMNLYDLSLYIAKQRELFYILNSVYNEQELAILFSSLTEQSSRFKEQILENYLSAKNVGELASLLGYGVTNFRAKFKEQFGVSVYRWLLNRKSQHIIYRITVYGDEFSQIIDDFGFSSPSHFNKFCRSQYGLTPCELRKKLKTNNNS”, “not soluble”; in that of “MPLEASELKPTAGPLEASELKPTAGPLEASELKPTAGPLEASELKPTAGPLEASELKPTAGPLEASELKPTAGPLEASELKPTAGMKKNSYLLSCLAIAVSSACHAEVLTYPDPLGSSQSDFGGTGLLQMPNARIAPEGEFSVNYRDNDQYRFYSTSVALFPWLEGTIRYTDVRTRKYSQWEDFSGDQSYKDKSFDFKLRLWEEGYWLPQVAFGKRDIAGTGLFDGEYLVASKQAGPFDFTLGMAWGYAGNAGNITNPFCRVSDKYCHRAESHDAGDISFSDIFRGPASIFGGIEYQTPWNPLRLKLEYDGNNYQNDFAGKLPQASHFNVGAVYRAASWADLNLSYERGNTLMFGFTLRTNFNDLRPALRDTPKPAYQPAPESEGLQYTTVANQLTALKYNAGFDAPEIQLRDKTLYMSGQQYKYRDSREAVDRANRILVNNLPQGVEKISVTQKREHMAMVTTETDVASLRKQLAGTAPGQSEPLQQQRVEAEDLSAFGRGYRIREDRFSYSFNPTLSQSLGGPEDFYMFQLGLMSSARYWFTDHLLLDGGIFTNIYNNYDKFKSSLLPADSTLPRVRTHIRDYVRNDVYLNNLQANYFADLGNGFYGQVYGGYLETMYAGVGSELLYRPLDACWALGVDVNYVKQRDWDNMMRFTDYSTPTGFVTAYWNPPTLNGVLMKLSVGQYLAKDKGATIDVAKRFDSGVAVGVWAAISNVSKDDYGEGGFSKGFYISIPFDLMTIGPNRNRAVVSWTPLTRDGGQMLSRKYQLYPMTAEREVPVGQLEHHHHHH”, “not soluble”. For “FHQISSRIQKSIDVDEVLRLCAEGLHDVLGYERVNILMADTARTSLSFVAAVGTADFNPAGVVLPLDQRGGVITKCFTDRQVYMIDDVSAYPTDFRLQSPYDAIRALRSKSFVICPIVVKGEAIGVFAVDNRSSRRSLNDTDVDTIKLFADQASSAIVRINLLKAI”, the “soluble on expression in E. coli” value was “soluble”.

Turning to “MFENESLSFEEQTIIQAAERYVQQELANEASGHDWWHIYRVTQLAKTIAEKEQANLFLCILTALLHDIGDEKFNESEEAGLLKVQQWLEANNVSTEQTNHILSIIANMSFKGGNTGKTVTTLEGKVVQDADRLDAIGAIGIARVMAYSGNKGRLIHDPHKQPREQLTQEEYRNGEDTAIMHFYEKLLKLKEQMNTNYGRLLAEKRHQFMELYLEEFYQEWDGHR”, the “soluble on expression in E. coli” value was “not soluble”. As for “MGSDKIHHHHHHMLILYQFERTWGNPNLSHFCCKTETYLRMAGIEYAIKTTLPLFAPKGKLPYIKDGNIKLADSRFIIRHLKNRYKDLDEGLNPAEIALSLAMQRLIEEHLFWATMYTRWQYTDVNWQVNKKAIFDVLPPAIRDVAAVIYRYRIRRQIYGHGMGRHKPEEIFELGMQDIDALSACLGDKKYFLGDQPTTLDASAFGFLINTIACPIESPLKEYGLSKENLGDYIDRIKMQYYPDLQ”, the entry is “not soluble”; as for “MTVVDAHLHVWDPEQAAYEWLGPAMAPVDRAMRFHDALPALRTAGVGAAVLVQAADNDEDTDLMLATAARHPEVVGVVAWVPLDDPGRARARLAALRRDPHVVGVRTLLHERSDPDWVLGPDADAGLALLAEAGLPFDYSTTSPAALRHLAELSARHPALRLVVDHLGKPPVGGGREDRAEWHRLIAAAAKHPGVHAKLSGLYSASGALDAWTTDEVRPFVEDALELFGPERLMYGGDWPISLLAGGYARTWEAMCELLAPLAPDDRAAVLGGTATRFYRLDPALLNTAHHAAVLEHHHHHH”, “not soluble”. In the case of “MAHHHHHHMQFVSDLGLELSVFVCHLYAKYSEEPLKAFHELVLRTRSSCCGSDDSSNYLSLATLSGTQWYQDMTKRYASLRQRLRGERDNDVQEAREVTLSLYPQGCRVSEYADAIVTSAAMLTSNIPSTVLERFASCRVKDLNEKGCVSISADELASDLIERPVLDSFTPSRWWESDKTAPSSSLKDGLVAVKSIGLRVQPVEILIFYTYNGRPRRRFIPLDGLLHENSPIAPLLRRLVRSHGMLVSESQLRSYLQRLQELMRKSVESHASTVKPEGPLQPQFDWKQQIGYSDNAPAAHNTGEEEQHMTSAKTGEPEVNKADVGLLYRDPEAALKNVDLNDADDITLQEFKAKMNEGFMQNALRPGDPGYVYDKRLDVNPTERSEWDDSD” it was “not soluble”; in that of “MSKSENLYSAARELIPGGVNSPVRAFTGVGGTPLFIEKADGAYLYDVDGKAYIDYVGSWGPMVLGHNHPAIRNAVIEAAERGLSFGAPTEMEVKMAQLVTELVPTMDMVRMVNSGTEATMSAIRLARGFTGRDKIIKFEGCYHGHADCLLVKAGSGALTLGQPNSPGVPADFAKYTLTCTYNDLASVRAAFEQYPQEIACIIVEPVAGNMNCVPPLPEFLPGLRALCDEFGALLIIDEVMTGFRVALAGAQDYYGVVPDLTCLGKIIGGGMPVGAFGGRRDVMDALAPTGPVYQAGTLSGNPIAMAAGFACLNEVAQPGVHETLDELTTRLAEGLLEAAEEAGIPLVVNHVGGMFGIFFTDAESVTCYQDVMACDVERFKRFFHMMLDEGVYLAPSAFEAGFMSVAHSMEDINNTIDAARRVFAKL”, “soluble”; in that of “MSAKMDEQALLALLRELAIDSQRVEHPAIASIEEYYAQGIELPDQGIKNLFLRNRKGTRHYLVLLDERKEADLPGIAEQIGESRLSFASVERLREYLGVELGCVTPFALVNDPQHRVEVLLDDAIRQDQLLGFHPLVNTATECIRYADLLAFLAHTGHEPRLIRA”, “not soluble”. As for “MAHHHHHHMGGPPTIEELKREKIIPHVFPDENVDLTVDMYISFKSGKEVNHGNILDLAGTGSVPRNIKFSEEPPEDYCYILFMIDPDFPSRRRPDGRDYVHWAVSGIKSKELVKGTDKNCITLLPYVGPSIKKGTGLHRISFILSLVKEENKGNVTGVPLYRGEHYITRVKFNNCQSAYNVIQMNDMKIVGFNWCQMRRK”, the entry is “soluble”; as for “SANLCKRVVDLEKYIVKEAPPTVYYIPDFISEAEEEFLLQQVYRAPKPKWTQLSGRRLQNWGGLPNPKGMLAEKLPDWLLEYTEKISALGAFAGKTANHVLVNEYKPGEGIMPHEDGPLYHPTVTTITVGSHTLLDFYRPVCQAEPDAPQTEESRYMLSLLVQRKSLLILQDDMYKCYLHGIRGVCEDVLSEHVVNISSTGAQVGDTLPRSTRVSLTIRHVPKIIRANLFLGKK”, “soluble”.

On to “SLNTGEPAPVLSSPPPADVSTFLAFPSPEKLLRLGPKSSVLIAQQTDTSDPEKVVSAFLKVSSVFKDEATVRMAVQDAVDALMQKAFNSSSFNSNTFLTRLLVHMGLLKSEDKVKAIANLYGPLMALNHMVQQDYFPKALAPLLLAFVTKPNSALESSSFARHSLLQTLYKV”, for which the “soluble on expression in E. coli” value was “soluble”.
